Reference: the supplement of paper PMC10567573

B1: ESRRG (parent)
chain: YSCPATNECEITKRRRKSCQACRF

Variants of: B1
Experiment: protein stability index of a GFP-peptide fusion (GPS, HEK-293T) (PSI 1-6); higher = more stable
Settings: c terminus: a fixed tail appended
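Also: lentivirally expressed fusions sorted by FACS into six bins by GFP to DsRed ratio, PSI derived from sequencing read proportions per bin multiplied by bin number.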

Going from YSCPATNECEITKRRRVSCQACRF [K17V] to YSCPATNECEITKRRRHSCQACRF [K17H], the protein stability index rises from 2.97 to 3.82.

First: YSCPATNECEITKRRRKSCNACRF [Q20N]
Second: YSCPATNECEITKRRRKSCPACRF [Q20P]
The protein stability index of the first is higher: 3.52 for the first, 3.39 for the second.

Compared with YSCPATNECEITKRRRKSCDACRF [Q20D], YSCPATNECEITKRRRKSCYACRF [Q20Y] is lower in protein stability index: 3.7 for the first, 2.81 for the second.

Compared with YSCPATNECEITKRRRKSCSACRF [Q20S], YSCPATNECEITKRRYKSCQACRF [R16Y] is lower in protein stability index: 3.02 for the first, 3 for the second.

First: YSCPATNECEITKRRDKSCQACRF [R16D]
Second: YSCPATNECEITKRRNKSCQACRF [R16N]
The protein stability index of the first is higher: 3.75 for the first, 3.69 for the second.

Going from YSCPATNECEITKRRPKSCQACRF [R16P] to YSCPATNECEITKRRLKSCQACRF [R16L], the protein stability index falls from 3.24 to 2.92.

Compared with YSCPATNECEITKRREKSCQACRF [R16E], YSCPATNECEITKRRGKSCQACRF [R16G] is higher in protein stability index: 3.63 for the first, 3.66 for the second.

Compared with YSCPATNECEITKRRKKSCQACRF [R16K], YSCPATNECEITKRRTKSCQACRF [R16T] is higher in protein stability index: 3.62 for the first, 3.96 for the second.

Compared with YSCPATNECEITSRRRKSCQACRF [K13S], YSCPATNECEITRRRRKSCQACRF [K13R] is higher in protein stability index: 3.5 for the first, 3.64 for the second.

Compared with YSCPATNECEITNRRRKSCQACRF [K13N], YSCPATNECEITFRRRKSCQACRF [K13F] is lower in protein stability index: 3.43 for the first, 2.67 for the second.

Compared with YSCPATNECEITTRRRKSCQACRF [K13T], YSCPATNECEITYRRRKSCQACRF [K13Y] is lower in protein stability index: 3.2 for the first, 2.78 for the second.

Going from YSCPATNECEITARRRKSCQACRF [K13A] to YSCPATNECEITHRRRKSCQACRF [K13H], the protein stability index rises from 3.28 to 3.44.

Compared with YSCPATNECEITLRRRKSCQACRF [K13L], YSCPATNECEITKRRRKSCQACRG [F24G] is higher in protein stability index: 3.15 for the first, 4.18 for the second.

Compared with YSCPATNECEITKRRRKSCQACRH [F24H], YSCPATNECEITKRRRKSCQACRL [F24L] is lower in protein stability index: 4.18 for the first, 3.61 for the second.

Compared with YSCPATNECEITKRRRKSCQACRY [F24Y], YSCPATNECEITKRRRKSCQACRA [F24A] is higher in protein stability index: 3.53 for the first, 4 for the second.

First: YSCPATNECEITKRRRKSCQACRS [F24S]
Second: YSCPATNECEITKRRRKSCQACRT [F24T]
The protein stability index of the first is lower: 3.89 for the first, 4.12 for the second.

First: YSCPATNECEITKRRRKSCQACRI [F24I]
Second: YSCPATNECEITKRRRKECQACRF [S18E]
The protein stability index of the first is higher: 3.67 for the first, 3.43 for the second.

Going from YSCPATNECEITKRRRKHCQACRF [S18H] to YSCPATNECEITKRRRKLCQACRF [S18L], the protein stability index falls from 3.48 to 3.19.

Compared with YSCPATNECEITKRRRKICQACRF [S18I], YNCPATNECEITKRRRKSCQACRF [S2N] is higher in protein stability index: 3.16 for the first, 3.4 for the second.

First: YTCPATNECEITKRRRKSCQACRF [S2T]
Second: YLCPATNECEITKRRRKSCQACRF [S2L]
The protein stability index of the first is lower: 2.85 for the first, 2.96 for the second.

First: YHCPATNECEITKRRRKSCQACRF [S2H]
Second: YYCPATNECEITKRRRKSCQACRF [S2Y]
The protein stability index of the first is lower: 2.47 for the first, 2.89 for the second.

First: YECPATNECEITKRRRKSCQACRF [S2E]
Second: YDCPATNECEITKRRRKSCQACRF [S2D]
The protein stability index of the first is higher: 4.1 for the first, 3.87 for the second.

Going from YKCPATNECEITKRRRKSCQACRF [S2K] to YCCPATNECEITKRRRKSCQACRF [S2C], the protein stability index falls from 3.15 to 2.52.

First: YSCPATNECEITKRRRKSCQAIRF [C22I]
Second: YSCPATNECEITKRRRKSCQAFRF [C22F]
The protein stability index of the first is higher: 3.42 for the first, 2.81 for the second.

Going from YSCPATNECEITKRRRKSCQATRF [C22T] to YSCPATNECEITKRRRKSCQAGRF [C22G], the protein stability index falls from 3.58 to 3.38.

Compared with YSCPATNECEITKRRRKSCQARRF [C22R], YSCPATNECEITKRRRKSCQAKRF [C22K] is higher in protein stability index: 3.87 for the first, 3.97 for the second.

First: YSCPATNECFITKRRRKSCQACRF [E10F]
Second: YSCPATNECIITKRRRKSCQACRF [E10I]
The protein stability index of the first is lower: 2.53 for the first, 2.8 for the second.

Compared with YSCPATNECPITKRRRKSCQACRF [E10P], YSCPATNECGITKRRRKSCQACRF [E10G] is higher in protein stability index: 3.09 for the first, 3.23 for the second.

First: YSCPATNECLITKRRRKSCQACRF [E10L]
Second: YSCPATNECVITKRRRKSCQACRF [E10V]
The protein stability index of the first is higher: 3.06 for the first, 2.66 for the second.

Compared with YSCPATNECTITKRRRKSCQACRF [E10T], YSCPATNECWITKRRRKSCQACRF [E10W] is lower in protein stability index: 3.27 for the first, 2.22 for the second.

Going from YSCPATNECQITKRRRKSCQACRF [E10Q] to YSCPATNECESTKRRRKSCQACRF [I11S], the protein stability index rises from 3.59 to 3.63.

Going from YSCPATNECEFTKRRRKSCQACRF [I11F] to YSCPATNECEGTKRRRKSCQACRF [I11G], the protein stability index rises from 3.26 to 3.47.

First: YSCPATNECEDTKRRRKSCQACRF [I11D]
Second: YSCPATNECEQTKRRRKSCQACRF [I11Q]
The protein stability index of the first is lower: 3.41 for the first, 3.51 for the second.

Going from YSCPATNECEMTKRRRKSCQACRF [I11M] to YSCPATNECEWTKRRRKSCQACRF [I11W], the protein stability index rises from 3.14 to 3.44.

Going from YSCPATNECEATKRRRKSCQACRF [I11A] to YSCPATNECEHTKRRRKSCQACRF [I11H], the protein stability index rises from 3.39 to 4.47.

Going from YSCPATNECEETKRRRKSCQACRF [I11E] to YSCPATNECEVTKRRRKSCQACRF [I11V], the protein stability index falls from 3.95 to 3.25.

Compared with YSCPATNECEITKRTRKSCQACRF [R15T], YSCPATNECEITKRERKSCQACRF [R15E] is higher in protein stability index: 3.22 for the first, 3.37 for the second.

Compared with YSCPATNECEITKRQRKSCQACRF [R15Q], YSCPATNECEITKRYRKSCQACRF [R15Y] is lower in protein stability index: 3.38 for the first, 3.34 for the second.

Compared with YSCPATNECEITKRSRKSCQACRF [R15S], YSCPATNECEITKRHRKSCQACRF [R15H] is higher in protein stability index: 3.48 for the first, 4.16 for the second.

Compared with YSCPAWNECEITKRRRKSCQACRF [T6W], YSCPAENECEITKRRRKSCQACRF [T6E] is higher in protein stability index: 2.26 for the first, 3.37 for the second.

Going from YSCPAPNECEITKRRRKSCQACRF [T6P] to YSCPANNECEITKRRRKSCQACRF [T6N], the protein stability index rises from 2.2 to 4.04.

Going from YSCPAVNECEITKRRRKSCQACRF [T6V] to YSCPAQNECEITKRRRKSCQACRF [T6Q], the protein stability index rises from 3.1 to 3.42.

Going from YSCPACNECEITKRRRKSCQACRF [T6C] to YSCPAKNECEITKRRRKSCQACRF [T6K], the protein stability index falls from 3.76 to 3.72.

First: YSCPARNECEITKRRRKSCQACRF [T6R]
Second: YSCPATNECEITKRRRKSCQACHF [R23H]
The protein stability index of the first is higher: 3.46 for the first, 2.96 for the second.

First: YSCPATNECEITKRRRKSCQACPF [R23P]
Second: YSCPATNECEITKRRRKSCQACQF [R23Q]
The protein stability index of the first is higher: 3.7 for the first, 3.69 for the second.

First: YSCPATNECEITKRRRKSCQACYF [R23Y]
Second: YSCPATNECEITKRRRKSCQACGF [R23G]
The protein stability index of the first is lower: 3.3 for the first, 3.79 for the second.

First: YSCPATNECEITKRRRKSCQACVF [R23V]
Second: YSCPATNECEITKRRRKSCQACTF [R23T]
The protein stability index of the first is lower: 2.46 for the first, 3.01 for the second.
